Assays:
[1] = system: human PBMC (resistin mRNA); assay: Stimulation of human PBMC with pro-inflammatory cytokines: resistin mRNA; assay type: cell-based; conditions: human PBMC (n=5), physiological concentrations (TNF-alpha 1-5 ng/ml)
Method: (§1) Peripheral blood mononuclear cells (PBMC) were prepared from heparinized blood of healthy individuals by separation on a Lymphoprep density gradient, washed, and resuspended in complete medium (Iscoves medium containing 1% L-glutamine, 5×10^−5 M ®-mercapto ethanol, […] of gentamycin sulphate, and 10% heat inactivated fetal calf serum). Culturing of PBMC was carried out in 24-well plates in a humidified atmosphere of 5% CO2 at 37° C. Culturing of monocytic cell line THP-1 (American Type Culture Collection, Manassas, Va.) was performed in 10-ml culture flasks (Nunclon) in […] medium supplemented with 10% FCS, 1% sodium pyruvate, gentamycin, and 2.5% Hepes in a humidified atmosphere of 5% CO2 at 37° C. For the experiments, 4-days old cells were harvested, washed, and adjusted to 1×10^6 cells/ml.
(§2) Total RNA from harvested cells was extracted by an RNAeasy kit (Qiagen, Inc.) and concentration was assessed spectrophotometrically at 260 nm. The gene expression was measured with TaqMan real time PCR (Applied Biosystems, Foster City, Calif.) as previously described (N&S, 2001). In short, total RNA extracts were treated with deoxyribonuclease I, and reverse transcribed with random nonamer primers and superscript II RnaseH-reverse transcriptase (life Technologies). After first strand cDNA synthesis, relative transcript cDNA levels were measured using oligonucleotide PCR primers and fluorogenic Taqman probes for test genes and 18S rRNA. […] For generation of the standard curve, serially diluted cDNA prepared from PBMC were used. Each TaqMan set span one or two exon joints in order to increase further both specificity of only RNA detection and efficiency of PCR reaction. Sequences were manually designed with using the PrimerExpress program (Applied Biosystems) to check them for secondary structure, melting temperature, GC content, primer to primer and/or to probe dimmers. The GenBank database was useful to avoid all known sites of oligonucleotide polymorphism and unspecific annealing of any nucleotide.

THP-1 cells = assay: Stimulation of monocytic cell line THP-1; assay type: cell-based, human
Method: as §1

[2] = system: knee joint of healthy mice; assay: Intra-articular injection of recombinant mouse resistin into knee joint, histology; assay type: in vivo
Method: Female NMRI mice, 6-8 weeks old, weighing 25-30 g, were purchased from ALAB (Stockholm, Sweden). The mice were bred and housed in the animal facility of the Department of Rheumatology, University of Göteborg, under standard conditions of temperature and light, and fed laboratory chow and water ad libidum. Mouse recombinant resistin (PeproTech EC, London, U.K.) was injected intra-particularly into the right knee joint (0.1-100 ng/knee) in the total volume of 20 μl. Control mice obtained equivalent volume of mouse albumin (Sigma, St. Louise, Mo.) in PBS buffer. Three days after the joint injection, the mice were sacrificed by cervical dislocation and the right knee was removed for histological examination.
Histological examination of joints was done after routine fixation, decalcification, and paraffin embedding of the tissue. Tissue sections of the knee joints were cut and stained with hematoxylin and eosin. All the slides were coded and evaluated blindly by two investigators with respect to synovial hypertrophy, the inflammatory cell infiltration of synovia, pannus formation, and cartilage and subchondral bone destruction. Synovial hypertrophy was defined as synovial membrane thickness of more than two cell layers. Intensity of in-flammatory cell infiltration of synovia was graded arbitrarily from 0 to 3.

NF-kappaB = assay: Electrophoretic mobility shift assay of nuclear extracts of resistin-stimulated PBMC; assay type: cell-based, human; conditions: PBMC stimulated with resistin
Method: Human PBMC (10^7) were stimulated with recombinant resistin (10-500 ng/ml) as described above. After 2 h, the stimulation was stopped with ice-cold PBS, cells were washed and resuspended in 2 ml hypotonic buffer (pH 7.9, containing 10 mM HEPES, 0.1 mM EDTA, 0.1 mM EGTA, 10 mM KCl, 0.75 mM spermidin, 0.15 mM spermin, […] and proteinase inhibitors, Complete MiniTab, Boehringer) and homogenised. Following centrifugation at 14000 g at 4° C. for 10 min, the supernatant was removed and the pellet was resuspended in the ice-cold extraction buffer (pH 7.9, 20 mM HEPES, 0.42 M NaCl, […], 1 mM EGTA, 25% glycerol, […] and proteinase inhibitors). Extraction proceeded at 4° C. under continuous rotation for 1 h. The supernatants containing nuclear extracts were collected after centrifugation 14000 g for 1 h at 4° C. Protein concentration in the extracts was determined using Bradford reagent (Sigma). Nuclear extracts were aliquoted and stored at −70° C. until use.
EMSA was performed as described elsewhere (Bergquist et al., 2000) with minor modifications. The sequences for oligonucleotides used for the assay were as follows:
Oligonucleotides were annealed at 56° C. The double stranded product was purified by elution from the electrophoretic gel. […]

human PBMC = assay: Resistin stimulation of PBMC: cytokine gene expression and cytokine release; assay type: cell-based
Method: as §1
Freshly isolated PBMC were re-suspended to 2×10^6/ml and stimulated with recombinant human resistin (endotoxin concentration less than 0.1 ng/μg, PeproTech) at final concentration 10-1000 ng/ml. LPS (10 ng/ml) was used as a positive control in all the experiments. […] Cell stimulation period differed depending on the read-out system used. […]
Total RNA from harvested cells was extracted by an RNAeasy kit (Qiagen, Inc.) and concentration was assessed spectrophotometrically at 260 nm. The gene expression was measured with TaqMan real time PCR (Applied Biosystems, Foster City, Calif.) as previously described (N&S, 2001). […] After first strand cDNA synthesis, relative transcript cDNA levels were measured using oligonucleotide PCR primers and fluorogenic Taqman probes for test genes and 18S rRNA. […]
The level of IL-6 in synovial fluid and supernatants was determined by a bioassay. The effect of test samples on proliferation of the IL-6 dependent cell line B13.29 [21] was assessed following 72 h of culturing. The results were analyzed by incorporation of [3H]-thymidine (Radiochemical Centre, Amersham, Bucks, U.K.) during the last 4 h of incubation at 37° C. […]
Levels of TNF-α and IL-1B were assessed using an ELISA kit (R&D Systems) following manufacture's recommendations. […]

synovial cells = assay: In vitro stimulation of synovial cells from patients with acute synovitis; assay type: cell-based, human; conditions: synovial cells from patients with acute synovitis (n=4)
Method: as §2

TNF-alpha
induction of resistin mRNA [1]: could induce the expression of resistin | expression of resistin gene (THP-1 cells; THP-1 cells): neither stimulation with TNF-a nor with LPS gave rise to the expression of resistin gene

IL-1b: pro-inflammatory cytokine used to stimulate PBMC
induction of resistin mRNA [1]: less efficient

IL-6: pro-inflammatory cytokine used to stimulate PBMC
induction of resistin mRNA [1]: less efficient

B1: recombinant mouse resistin: Mouse recombinant resistin (PeproTech EC, London, U.K.) (protein, UniProt Q99P87 21-114, looked up)
Resistin: SSMPLCPIDEAIDKKIKQDFNSLFPNAIKNIGLNCWTVSSRGKLASCPEGTAVLSCSCGSACGSWDIREEKVCHCQCARIDWTAARCCKLQVAS
histological analysis of injected joints ([2]; 0.1-100 ng/knee intra-articularly, three days after injection): signs of inflammation in the joint | leukocyte infiltration and hyperplasia of synovia ([2]; single intra-articular injection, 1 ng/knee (50 ng/ml)): sufficient to induce leukocyte infiltration and hyperplasia of synovia

B2: recombinant human resistin: recombinant human resistin (endotoxin concentration less than 0.1 ng/μg, PeproTech) (protein, UniProt Q9HD89 19-108, looked up)
Resistin: KTLCSMEEAINERIQEVAGSLIFRAISSIGLECQSVTSRGDLATCPRGFAVTGCTCGSACGSWDVRAETTCHCQCAGMDWTGARCCRVQP
NF-kappaB translocation (EMSA) (NF-kappaB): induced translocation of NF-kappaB from cytoplasma to nucleus | cytokine production (THP-1 cells; THP-1 stimulated with resistin): cytokine production in the pattern similar to PBMC | IL-6 activity and levels of TNF-alpha and IL-1b in supernatants (human PBMC; PBMC, 48 hours of stimulation): dose dependent increase | cytokine gene expression (TNF-alpha, IL-6, IL-1b) in cell lysates (human PBMC; PBMC, resistin 10-1000 ng/ml): induction of genes for pro-inflammatory cytokines | resistin gene expression in PBMC (human PBMC; resistin stimulation, detectable following 3 h up to 24 h): self-stimulation of resistin gene | expression of TNF-alpha and IL-6 genes (synovial cells): increased expression of TNF-alpha and IL-6 genes

Source: patent publication US20080039411A1, “Use Of Resistin Antisense Oligonucleotides And/Or Sirna Molecules In The Treatment Of Rheumatoid Arthritis” (priority 2004, published 2008)
